Results on six molecules are retold here after patent publication US20180127502A1 (Memorial Sloan Kettering, published 2018).

Test [1] concerns the target T1, human PD-1 on human T cells (human, UniProt Q15116 25-288).
T1 construct: whole, on cells; In the functional rows it is the PD-1 of the transduced human peripheral blood T cells; also called PD-1 T cells; human T cells modified to overexpress human PD-1
As to the kind of experiment: flow cytometry, 1 µg/ml antibody, human T cells overexpressing human PD-1, goat anti-human Ig FITC. The text has this:
Flow cytometry was used to detect bound antibody using a goat anti-human Ig FITC conjugated antibody. […] Data shown is representative of one experiment.
For orientation: Flow cytometry measures light scatter and fluorescence of single cells or particles in a stream.

Test [2] concerns the target human PD-1 monomer (human, UniProt Q15116 25-167, limits assumed). As to the kind of experiment: ELISA on PD-1 monomer (FIG. 1). The text has this:
ET901 ScFv-Fc (mouse IgG1 Fc) served as the negative control.
For orientation: ELISA stands for enzyme-linked immunosorbent assay.

T1 sequence (Q15116 25-288): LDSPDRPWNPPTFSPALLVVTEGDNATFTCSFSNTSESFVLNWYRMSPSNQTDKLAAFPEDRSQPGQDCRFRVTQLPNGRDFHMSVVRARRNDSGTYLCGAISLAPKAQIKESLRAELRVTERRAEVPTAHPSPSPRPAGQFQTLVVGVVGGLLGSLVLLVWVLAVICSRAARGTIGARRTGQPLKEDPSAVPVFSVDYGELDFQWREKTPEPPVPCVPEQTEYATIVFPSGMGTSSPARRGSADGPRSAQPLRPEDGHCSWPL
human PD-1 monomer, sequence (Q15116 25-167 limits assumed): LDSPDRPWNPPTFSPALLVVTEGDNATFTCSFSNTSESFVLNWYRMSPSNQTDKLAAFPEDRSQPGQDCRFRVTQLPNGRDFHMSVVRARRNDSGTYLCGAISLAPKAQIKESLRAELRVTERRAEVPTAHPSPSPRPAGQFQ

B1: anti-PD-1 clone 23 monoclonal antibody (antibody, V domains shown)
VH: EVQLVQSGAEVKKPGDSVKVSCKASGYTFTRFGFSWVRQAPGQGLEWMGWISVNNGNTKYAQKYQGRVTMTTDTSTSTAYMELRSLRSDDTAVYYCARYMYGRRDSWGQGTLVTVSS
VL: QAVLTQPPSMSEAPRQRVTISCSGSSSNIGNNAVNWYQQLPGKAPKLLIYYNDLLSSGVSDRFSGSKSGTSASLAISGLQSEDEADYYCAAWDDSVNGYVFGTGTKVTVLG
notes: also called Clone 23 mAb; ET130-23
Turning to B1, the “percent of PD-1 human T cells bound” value in test [1] is 51%.

B2: anti-PD-1 scFv-Fc clone 23 (scFv linked to murine Fc) (Fc fusion)
chain: QAVLTQPPSMSEAPRQRVTISCSGSSSNIGNNAVNWYQQLPGKAPKLLIYYNDLLSSGVSDRFSGSKSGTSASLAISGLQSEDEADYYCAAWDDSVNGYVFGTGTKVTVLGGSRGGGGSGGGGSGGGGSEVQLVQSGAEVKKPGDSVKVSCKASGYTFTRFGFSWVRQAPGQGLEWMGWISVNNGNTKYAQKYQGRVTMTTDTSTSTAYMELRSLRSDDTAVYYCARYMYGRRDSWGQGTLVTVSS
notes: also called PD1-23; not shown: murine Fc (mouse IgG1a) domain
Consider B2, for which, in test [2], the binding result is reported as “binds”.

B3: anti-PD-1 scFv-Fc clone 26 (scFv linked to murine Fc) (Fc fusion)
chain: QSVLTQPPSVSVAPGKTARITCGGNNIGSKSVHWYQQKPGQAPVLVIYYDSDRPSGIPERFSGSNSGNTATLTISRVEAGDEADYYCQVWDNHSDVVFGGGTKLTVLGGGGGSGGGGSGGGGSQVQLVESGGGLVQPGGSLRLSCAASGYTRNKFSSYAMSWVRQAPGKGLEWVSGISGSGGTTYYADSVKGRFTISRDNSKNTQYLQLDSLRAEDTAVYYCARWYSSYYDVWGQGTLVTVSS
notes: also called PD1-26; not shown: murine Fc (mouse IgG1a) domain
Turning to B3, in test [2], the binding result is “binds”.

B4: anti-PD-1 clone 26 monoclonal antibody (antibody, V domains shown)
VH: QVQLVESGGGLVQPGGSLRLSCAASGYTRNKFSSYAMSWVRQAPGKGLEWVSGISGSGGTTYYADSVKGRFTISRDNSKNTQYLQLDSLRAEDTAVYYCARWYSSYYDVWGQGTLVTVSS
VL: QSVLTQPPSVSVAPGKTARITCGGNNIGSKSVHWYQQKPGQAPVLVIYYDSDRPSGIPERFSGSNSGNTATLTISRVEAGDEADYYCQVWDNHSDVVFGGGTKLTVLG
notes: also called Clone 26 mAb; ET130-26
In the case of B4, the “percent of PD-1 human T cells bound” value in test [1] was 78%.

B5: anti-PD-1 clone 27 monoclonal antibody (antibody, V domains shown)
VH: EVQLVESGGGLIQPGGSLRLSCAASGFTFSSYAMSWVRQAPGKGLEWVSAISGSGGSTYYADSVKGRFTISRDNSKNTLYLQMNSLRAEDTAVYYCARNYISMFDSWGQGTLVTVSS
VL: QSVLTQPPSVSVAPGKTARITCGGNNIGSKSVHWYQQRPGQAPVLVIYYDSDRPSGIPERFSGSNSGNTATLTISRVEAGDEADYYCQVWDSSSDYVFGIGTKVTVLG
notes: also called Clone 27 mAb; E27 mAb
As to B5, the “percent of PD-1 human T cells bound” value in test [1] is 67%.

B6: anti-PD-1 scFv-Fc clone 40 (scFv linked to murine Fc) (Fc fusion)
chain: QSVLTQPPSASGTPGQRVTISCSGSRSNIGENTVNWYQQLPGTAPKLLIYSNNQRPSGVPDRFSGSKSGTSASLAISGLHSDDEADYFCAAWDDRLNGYVFGTGTKVTVLGGGGGSGGGGSGGGGSQVQLVQSGPEVKKPGASVKVSCKASGYTFTNYGFTWVRQAPGQGLEWMGWIGAQKGDTEYAQKFQGRVTMTTDTSTSTVYLELRSLRSDDTAVYYCARSQGVPFDSWGQGTLVTVSS
notes: also called PD-1-40; not shown: murine Fc (mouse IgG1a) domain
Turning to B6, in test [2], the binding result is “binds”.
